These results are taken from doi:10.1101/2021.09.12.459968.

“And” between values parts separate entries of the source, which are not always exact repeats. Equal values may be shown once.

Experiment [1] concerns the target T1, full-length mouse NLRP3 (FLAG-mScarlet tag removed), double ring cage (mouse), Q8R4B8.
T1 chain: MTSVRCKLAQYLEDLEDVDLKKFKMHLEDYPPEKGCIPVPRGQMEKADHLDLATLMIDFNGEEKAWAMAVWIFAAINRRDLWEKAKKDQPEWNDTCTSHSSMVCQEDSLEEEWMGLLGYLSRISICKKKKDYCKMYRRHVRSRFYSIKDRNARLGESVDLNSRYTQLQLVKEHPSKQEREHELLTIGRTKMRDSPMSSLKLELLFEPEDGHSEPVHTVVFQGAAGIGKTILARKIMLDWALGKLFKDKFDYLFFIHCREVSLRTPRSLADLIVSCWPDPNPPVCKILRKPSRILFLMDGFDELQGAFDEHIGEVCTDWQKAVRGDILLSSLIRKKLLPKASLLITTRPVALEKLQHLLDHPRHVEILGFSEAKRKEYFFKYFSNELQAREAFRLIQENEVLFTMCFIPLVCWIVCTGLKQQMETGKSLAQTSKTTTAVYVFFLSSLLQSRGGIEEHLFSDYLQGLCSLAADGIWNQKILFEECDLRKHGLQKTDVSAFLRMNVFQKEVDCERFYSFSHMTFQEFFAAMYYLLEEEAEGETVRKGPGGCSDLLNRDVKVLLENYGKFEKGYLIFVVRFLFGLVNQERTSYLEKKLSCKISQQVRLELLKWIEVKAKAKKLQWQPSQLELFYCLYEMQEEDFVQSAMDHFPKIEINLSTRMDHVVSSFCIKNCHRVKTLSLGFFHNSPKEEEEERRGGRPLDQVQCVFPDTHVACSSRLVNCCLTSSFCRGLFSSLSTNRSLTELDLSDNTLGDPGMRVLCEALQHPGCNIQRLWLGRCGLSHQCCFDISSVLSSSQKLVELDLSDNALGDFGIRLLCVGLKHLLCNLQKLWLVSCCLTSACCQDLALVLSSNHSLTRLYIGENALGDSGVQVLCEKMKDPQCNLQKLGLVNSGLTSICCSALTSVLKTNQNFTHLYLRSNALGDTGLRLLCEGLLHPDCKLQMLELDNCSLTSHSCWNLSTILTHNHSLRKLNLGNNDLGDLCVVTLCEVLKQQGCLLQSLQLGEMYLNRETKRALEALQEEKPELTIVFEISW
Description: cryo-EM structure. The note with it: remark: other sources report otherwise.

The target of experiment [2] is T1, full-length mouse NLRP3 (FLAG-mScarlet …). Put plainly: cryo-EM structure. The conditions noted are these: remark: other sources report otherwise.

B1: full-length mouse NLRP3 (FLAG-mScarlet tag removed), double ring cage, Q8R4B8 1-1033 (natural protein)
chain: T1 chain
On to B1, for which the stoichiometry N was 12 in experiment [1]; 12 and 14 and 16 in experiment [2].
